This note sets out measurements from patent US20240254255A1.

The target in test [1] is human HER2 (ErbB2) expressed on the surface of cell lines and primary cells (human) (UniProt P04626). The test can be described thus: flow cytometry, JIMT1 cells, [Ab] 1.25 ug/ml. (In general: In flow cytometry, cells or beads pass a laser one at a time.)
Test [2] shares this target. Put plainly: flow cytometry, ZR751 cells, [Ab] 5 ug/ml.
The target is the same in test [3]. The test can be described thus: flow cytometry, ZR751 cells, [Ab] 1.25 ug/ml.
For test [4] the target is unchanged. The test can be described thus: flow cytometry, JIMT1 cells, [Ab] 20 ug/ml.
Test [5] has the same target. The test can be described thus: flow cytometry, ZR751 cells, [Ab] 0.31 ug/ml.
For test [6] the target is unchanged. The test can be described thus: flow cytometry, ZR751 cells, [Ab] 40 ug/ml.
The target is the same in test [7]. Put plainly: flow cytometry, MDAMB361 cells, [Ab] 5 ug/ml.
Test [8] has the same target. Put plainly: flow cytometry, JIMT1 cells, [Ab] 10 ug/ml.
For test [9] the target is unchanged. The test can be described thus: flow cytometry, ZR751 cells, [Ab] 0.63 ug/ml.
The target is the same in test [10]. The test can be described thus: flow cytometry, MDAMB361 cells, [Ab] 10 ug/ml.
The target is the same in test [11]. The test can be described thus: flow cytometry, MDAMB361 cells, [Ab] 1.25 ug/ml.
For test [12] the target is unchanged. The test can be described thus: flow cytometry, ZR751 cells, [Ab] 2.5 ug/ml.
For test [13] the target is unchanged. Put plainly: flow cytometry, ZR751 cells, [Ab] 10 ug/ml.
Test [14] has the same target. The test can be described thus: flow cytometry, ZR751 cells, [Ab] 20 ug/ml.
The target is the same in test [15]. Put plainly: flow cytometry, JIMT1 cells, [Ab] 5 ug/ml.
The target is the same in test [16]. The test can be described thus: flow cytometry, MDAMB361 cells, [Ab] 40 ug/ml.
For test [17] the target is unchanged. Put plainly: flow cytometry, MDAMB361 cells, [Ab] 20 ug/ml.

For IC1 (isotype control antibody), the MFI A.U. in test [1] is 183 A.U; in test [2] it was 696 A.U; in [3], 312 A.U; in test [4] it was 516 A.U; in test [5], 199 A.U; in test [6], 3320 A.U. In addition, the MFI A.U. in test [7] came to 253 A.U; in [8], 240 A.U; in test [9], 271 A.U; in test [10], 605 A.U; in [11], 202 A.U; in test [12], 484 A.U. Moreover, the MFI A.U. was 1080 A.U in test [13]; 2540 A.U in test [14]; 190 A.U in [15]; 558 A.U in test [16]; 617 A.U in [17].
